Results as given in PMC9249791, “Molecular dissection of the glutamine synthetase-GlnR nitrogen regulatory circuitry in Gram-positive bacteria” (Nature Communications, 2022).
Several values for one entry are separate records, joined by “and”; a condition that tells them apart may be missing. Equal values may be shown once. Where no end group is shown, it is not given here.

B4: Bacillus subtilis glutamine synthetase (enzyme, B. subtilis)
chain: MAKYTREDIEKLVKEENVKYIRLQFTDILGTIKNVEIPVSQLGKALDNKVMFDGSSIEGFVRIEESDMYLYPDLNTFVIFPWTAEKGKVARFICDIYNPDGTPFEGDPRNNLKRILKEMEDLGFSDFNLGPEPEFFLFKLDEKGEPTLELNDKGGYFDLAPTDLGENCRRDIVLELEEMGFEIEASHHEVAPGQHEIDFKYAGAVRSCDDIQTFKLVVKTIARKHGLHATFMPKPLFGVNGSGMHCNLSLFKNGVNAFFDENADLQLSETAKHFIAGIVKHATSFTAVTNPTVNSYKRLVPGYEAPCYVAWSAQNRSPLIRIPASRGISTRVEVRSVDPAANPYLALSVLLAAGLDGIKNKLEAPAPIDRNIYVMSKEERMENGIVDLPATLAEALEEFKSNEVMVKALGEHLFEHFIEAKEIEWDMFRTQVHPWEREQYMSQY
notes: glutamine synthetase (GS, class GSI-alpha) of B. subtilis; gene bought from Genscript, in pET15b; Dodecamer as apo protein; tetradecamer (14 copies) in the complexes with TnrA, GlnR and the GlnR C-tail peptide; The His-tag was removed only for crystallography; also called Bs GS; source: E. coli C41(DE3), purified (cobalt NTA); copies: 12

Legend:
[1] = biological target: T1, Pp GS (Paenibacillus polymyxa, UniProt A0A0F0G8G2); test: X-ray crystal structure […] Å; assay type: binding; details: formed in situ from 5 mM ATP and 5 mM Met-Sox with 5 mM MgCl2; with Met-Sox-P
T1 construct: gene glnA2; full-length, synthetic gene in pET15b, N-terminal His-tag (removed by thrombin for crystallography), E. coli C41(DE3)
T1 sequence (A0A0F0G8G2 1-442): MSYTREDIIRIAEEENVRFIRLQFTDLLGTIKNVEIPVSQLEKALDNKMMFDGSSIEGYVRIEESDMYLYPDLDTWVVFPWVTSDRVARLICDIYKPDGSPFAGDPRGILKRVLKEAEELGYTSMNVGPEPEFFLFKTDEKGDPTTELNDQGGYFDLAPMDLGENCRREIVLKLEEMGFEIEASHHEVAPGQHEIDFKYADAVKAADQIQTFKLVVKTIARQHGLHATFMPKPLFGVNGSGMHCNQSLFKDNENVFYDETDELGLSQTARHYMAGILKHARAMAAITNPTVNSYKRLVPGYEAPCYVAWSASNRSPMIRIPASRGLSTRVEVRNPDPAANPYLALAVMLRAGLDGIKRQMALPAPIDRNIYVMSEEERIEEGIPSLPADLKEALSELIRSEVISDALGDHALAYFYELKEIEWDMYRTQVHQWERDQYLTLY

[2] = biological target: Sa GlnR(1-87), His-tag removed (crystallography) (S. aureus) (UniProt Q53687); test: crystal structure; GlnR(1-87) with a 21-mer operator DNA (protein:DNA 1:1.5); GlnR dimer on the DNA
[3] = biological target: Listeria monocytogenes glutamine synthetase (L. monocytogenes); test: cryo-EM structure; GS (0.75-1.0 mg/mL) with 2.5 or 5 mM GlnR C-tail peptide, 30 min at rt; Buffer B (12.5 mM Tris pH 7.5, 20 mM glutamine, 5 mM MgCl2, 150 mM NaCl, 2.5% glycerol, 1 mM BME)
[4] = biological target: Listeria monocytogenes glutamine synthetase (L. monocytogenes); test: cryo-EM structure; apo GS without peptide, 0.9-1.0 mg/mL, exchanged into Buffer B
[5] = biological target: fluoresceinated Lm GlnR C-tail peptide (L. monocytogenes); test: fluorescence polarisation; FBI-GS against the corresponding fluoresceinated GlnR C-tail; 25 mM Tris pH 7.5, 100 mM NaCl, 5 mM MgCl2, 20 mM glutamine; three technical repeats
[6] = biological target: Paenibacillus polymyxa glutamine synthetase, His-tag removed (crystallography) (P. polymyxa); test: crystal structure; GS reacted with 5 mM MgCl2, 5 mM ATP and 5 mM Met-Sox (Met-Sox-P-ADP transition state complex); hanging drop, rt
[7] = biological target: Staphylococcus aureus glutamine synthetase, His-tag removed (crystallography) (S. aureus); test: as above
[8] = biological target: Staphylococcus aureus glutamine synthetase (S. aureus); test: cryo-EM structure; GS (0.75-1.0 mg/mL) with 2.5 or 5 mM GlnR C-tail peptide, 30 min at rt; Buffer B (12.5 mM Tris pH 7.5, 20 mM glutamine, 5 mM MgCl2, 150 mM NaCl, 2.5% glycerol, 1 mM BME)
[9] = biological target: Staphylococcus aureus glutamine synthetase (S. aureus); test: cryo-EM structure; apo GS without peptide, 0.9-1.0 mg/mL, exchanged into Buffer B
[10] = biological target: fluoresceinated Sa GlnR C-tail peptide (S. aureus); test: fluorescence polarisation; FBI-GS against the corresponding fluoresceinated GlnR C-tail; 25 mM Tris pH 7.5, 100 mM NaCl, 5 mM MgCl2, 20 mM glutamine; three technical repeats
[11] = biological target: Listeria monocytogenes glutamine synthetase, His-tag removed (crystallography) (L. monocytogenes); test: crystal structure; GS reacted with 5 mM MgCl2, 5 mM ATP and 5 mM Met-Sox (Met-Sox-P-ADP transition state complex); hanging drop, rt
[12] = biological target: Paenibacillus polymyxa glutamine synthetase (P. polymyxa); test: cryo-EM structure; GS (0.75-1.0 mg/mL) with 2.5 or 5 mM GlnR C-tail peptide, 30 min at rt; Buffer B (12.5 mM Tris pH 7.5, 20 mM glutamine, 5 mM MgCl2, 150 mM NaCl, 2.5% glycerol, 1 mM BME)
[13] = biological target: Paenibacillus polymyxa glutamine synthetase (P. polymyxa); test: cryo-EM structure; apo GS without peptide, 0.9-1.0 mg/mL, exchanged into Buffer B
[14] = biological target: fluoresceinated Pp GlnR C-tail peptide (P. polymyxa); test: fluorescence polarisation; FBI-GS against the corresponding fluoresceinated GlnR C-tail; 25 mM Tris pH 7.5, 100 mM NaCl, 5 mM MgCl2, 20 mM glutamine; three technical repeats
[15] = biological target: B4; test: cryo-EM structure; GS (0.75-1.0 mg/mL) with 2.5 or 5 mM GlnR C-tail peptide, 30 min at rt; Buffer B (12.5 mM Tris pH 7.5, 20 mM glutamine, 5 mM MgCl2, 150 mM NaCl, 2.5% glycerol, 1 mM BME); details: both partners purified
[16] = biological target: B4; test: negative stain EM; Bs GS mixed 1:1 with FL TnrA; 25 mM Tris pH 7.5, 200 mM NaCl, 5% glycerol, 1 mM MgCl2, 5 mM glutamine; 2D class averages; details: both partners purified
[17] = biological target: T2, Sa GlnR(1-87) (S. aureus, UniProt Q53687 1-87); test: FP
T2 chain: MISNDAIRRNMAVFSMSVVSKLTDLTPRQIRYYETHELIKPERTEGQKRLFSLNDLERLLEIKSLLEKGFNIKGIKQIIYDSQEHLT

[18] = biological target: the molecule itself; test: crystal structure; GlnR(1-87) with a 21-mer operator DNA (protein:DNA 1:1.5); GlnR dimer on the DNA
[19] = biological target: the molecule itself; test: cryo-EM structure; GS (0.75-1.0 mg/mL) with 2.5 or 5 mM GlnR C-tail peptide, 30 min at rt; Buffer B (12.5 mM Tris pH 7.5, 20 mM glutamine, 5 mM MgCl2, 150 mM NaCl, 2.5% glycerol, 1 mM BME)
[20] = biological target: the molecule itself; test: negative stain EM; apo Bs GS alone; 25 mM Tris pH 7.5, 200 mM NaCl, 5% glycerol, 1 mM MgCl2; 20-50 μg/mL; 2D class averages
[21] = biological target: fluoresceinated Bs GlnR C-tail peptide (B. subtilis); test: fluorescence polarisation; FBI-GS against the corresponding fluoresceinated GlnR C-tail; 25 mM Tris pH 7.5, 100 mM NaCl, 5 mM MgCl2, 20 mM glutamine; three technical repeats

## Nc1ncnc2c1ncn2[C@@H]1O[C@H](COP(=O)(O)OP(=O)(O)O)[C@@H](O)[C@H]1O [ADP]
[1]
  X-ray crystal structure 1.98 Å: densities for Met-Sox-P and ADP were clearly observed in each enzyme

## Sa GlnR(1-87), His-tag removed (crystallography) (from UniProt Q53687 1-87) (domain or fragment)
[2]
  stoichiometry N: 2

## Listeria monocytogenes glutamine synthetase (enzyme)
[3]
  stoichiometry N: 14
[4]
  stoichiometry N: 12
[5]
  Kd: 27.2 µM

## Paenibacillus polymyxa glutamine synthetase, His-tag removed (crystallography) (enzyme)
[6]
  stoichiometry N: 12

## Staphylococcus aureus glutamine synthetase, His-tag removed (crystallography) (enzyme)
[7]
  stoichiometry N: 12

## Staphylococcus aureus glutamine synthetase (enzyme)
[8]
  stoichiometry N: 12
[9]
  stoichiometry N: 12
[10]
  Kd: 7.2 µM

## Listeria monocytogenes glutamine synthetase, His-tag removed (crystallography) (enzyme)
[11]
  stoichiometry N: 12

## Paenibacillus polymyxa glutamine synthetase (enzyme)
[12]
  stoichiometry N: 14 and 12
[13]
  stoichiometry N: 12 and 14
[14]
  Kd: 18.7 µM

B1: Bs GlnR C-tail peptide (peptide)
peptide: MQAGRFQRGNTFRQGDMSRFFH
notes: C-tail residues of GlnR of B. subtilis; also called Bs GlnR peptide; source: synthetic peptide, bought: Genscript
[15]
  binding result: binds

B2: Bacillus subtilis TnrA, full length (natural protein, B. subtilis, UniProt Q45666 1-110, looked up)
chain: MTTEDHSYKDKKVISIGIVSELTGLSVRQIRYYEERKLIYPQRSSRGTRKYSFADVERLMDIANKREDGVQTAEILKDMRKKEQMLKNDPQVRKKMLEGQLNAHFRYKNR
notes: TnrA transcription regulator (MerR-like) of B. subtilis; Its production is not described here; also called FL TnrA; Bs TnrA
[16]
  binding result: binds

## fluorescein-KPIGETLPINRGDLSRFIK [fluoresceinated Sa GlnR C-tail peptide]
[17]
  Kd: 56 µM

B3: Lm GlnR(1-87), His-tag removed (crystallography) (domain or fragment, L. monocytogenes, UniProt L8DSZ4 1-87, looked up)
chain: MSEKEIRRSMPLFPIGPVMKLTDLTARQIRYYEDQGLIHPARNQGNHRLYSLQDIDVLLEIKDYLNDGLNIAGIKKMYQMQQKESKE
notes: GlnR of L. monocytogenes (122 residues), residues 1-87; Dimer on the 21 bp operator DNA, generated by crystallographic symmetry; also called Lm GlnR-DNA complex; source: E. coli C41(DE3), purified (cobalt NTA, thrombin digestion, Ni-NTA); not shown: His-tag, N-terminal, cleaved
[18]
  stoichiometry N: 2

## B4
[19]
  stoichiometry N: 14
[20]
  stoichiometry N: 12
[21]
  Kd: 4.2 µM
